This note sets out measurements from patent US20180100026A1 (CALIFORNIA INSTITUTE FOR BIOMEDICAL RESEARCH, published 2018).

Changes are numbered by the printed parent chain.

Usually EC50 stands for the concentration at which the effect is half-maximal.

Assay [1] deals with T1, CAR-FITC (CD8 hinge), anti-FITC (FITC-E2 scFv) chimeric antigen receptor on T cells.
T1 construct: FITC-E2 scFv, CD8 hinge and transmembrane region, 41BB and CD3 zeta; also called Anti FITC CAR-EC with CD8 hinge; anti-FITC CAR
T1 sequence (chain, as listed by the source mutant limits assumed): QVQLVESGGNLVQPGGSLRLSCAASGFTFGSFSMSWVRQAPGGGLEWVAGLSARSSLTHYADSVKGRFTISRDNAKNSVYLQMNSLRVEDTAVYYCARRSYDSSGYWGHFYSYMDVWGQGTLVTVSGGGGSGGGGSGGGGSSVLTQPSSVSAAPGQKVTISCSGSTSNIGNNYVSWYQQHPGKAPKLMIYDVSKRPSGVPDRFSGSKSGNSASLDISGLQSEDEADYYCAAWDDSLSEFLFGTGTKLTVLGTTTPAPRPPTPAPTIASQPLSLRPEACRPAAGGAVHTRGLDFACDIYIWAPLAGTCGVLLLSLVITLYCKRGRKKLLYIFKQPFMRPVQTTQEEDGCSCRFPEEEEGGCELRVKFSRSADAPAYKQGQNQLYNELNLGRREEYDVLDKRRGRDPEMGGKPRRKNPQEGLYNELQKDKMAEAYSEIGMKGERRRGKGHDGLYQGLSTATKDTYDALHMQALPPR
The assay is described as follows: flow cytometry on anti-FITC CAR T cells, Alexa Fluor 647 anti-human IgG or anti-human kappa secondary antibody, MFI against concentration. On the procedure:
(§1) Cells were incubated with indicated switch antibodies at 4° C. for 30-60 min and washed twice with staining buffer (1% BSA in PBS). […] After several washes, samples were acquired on a BD LSR II or BD Accuri C6 and analyzed using FlowJo 7.6.2 software.
(§2) Briefly, cells were incubated with indicated switch antibodies at 4° C. for 30-60 min and washed twice with staining buffer (1% BSA in PBS). […] After several washes, samples were acquired on a BD LSR II or BD Accuri C6 and analyzed using FlowJo 7.6.2 software.

Assay [2] concerns the target T1, CAR-FITC (CD8 hinge), anti-FITC …. Briefly: flow cytometry on anti-FITC CAR-T cells. On the procedure:
as §1, §2
(In general: A flow cytometer gives signals particle by particle.)

Assay [3] has as its target T2, CD33 on MOLM14 cells (human, UniProt P20138 18-364).
T2 construct: whole, on cells; also called MOLM-14 cells (CD33+)
The assay is described as follows: flow cytometry on MOLM-14 (CD33+) cells, MFI against Fab concentration, secondary antibody alone subtracted. On the procedure: Binding capacity is measured through MFI. MFI of secondary antibody alone was subtracted to account for background and non-specific staining.

In assay [4] the target is T2, CD33 on MOLM14 cells. Briefly: cell-based or functional assay.

T2 sequence (P20138 18-364): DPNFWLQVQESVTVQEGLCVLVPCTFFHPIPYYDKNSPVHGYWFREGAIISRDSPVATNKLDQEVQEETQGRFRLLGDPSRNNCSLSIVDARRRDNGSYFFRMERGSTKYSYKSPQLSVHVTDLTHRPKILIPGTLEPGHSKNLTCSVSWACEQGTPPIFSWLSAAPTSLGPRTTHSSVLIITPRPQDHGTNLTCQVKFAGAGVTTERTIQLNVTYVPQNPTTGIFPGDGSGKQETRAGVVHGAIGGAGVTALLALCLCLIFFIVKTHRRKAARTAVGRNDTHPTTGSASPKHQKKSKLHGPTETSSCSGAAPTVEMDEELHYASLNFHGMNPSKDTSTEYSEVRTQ

B1: random anti-CD19 (FMC63) Fab FITC conjugate (Fab, V domains shown)
VH: EVKLQESGPGLVAPSQSLSVTCTVSGVSLPDYGVSWIRQPPRKGLEWLGVIWGSETTYYNSALKSRLTIIKDNSKSQVFLKMNSLQTDDTAIYYCAKHYYYGGSYAMDYWGQGTSVTVSS
VL: DIQMTQTTSSLSASLGDRVTISCRASQDISKYLNWYQQKPDGTVKLLIYHTSRLHSGVPSRFSGSGSGTDYSLTISNLEQEDIATYFCQQGNTLPYTFGGGTKLEIKR
modifications: FITC-PEG4 by NHS chemistry at the N-terminal amino group (~58% of the conjugates); FITC-PEG4 by NHS chemistry at lysines, largely K31 (~20%) and K141 (~68.4%); paragraph 560 prints positions 31 and 145
notes: Heterogeneous mixture, average FITC to antibody ratio of 2; also called random conjugate; Random (DAR 2)
In assay [1], B1 returned a concentration giving a half-maximal response (EC50) of 0.0029 nM.

B2: anti-CD19 (FMC63) Fab A-FITC (light chain G68) (Fab, V domains shown)
VH: B1 VH
VL: B1 VL
modifications: position 68 = pAzF conjugated with BCN-PEG4-FITC
notes: Monovalent, proximal site; also called LG68
In turn, B2 displayed a half-maximal effective concentration (EC50) in assay [1] of 0.0094 nM.

B3: anti-CD19 (FMC63) Fab AB-FITC (light chain G68 and heavy chain S74) (Fab, V domains shown)
VH: B1 VH
VL: B1 VL
modifications: position 74 = pAzF conjugated with BCN-PEG4-FITC; position 68 = pAzF conjugated with BCN-PEG4-FITC
notes: Bivalent, proximal sites; also called anti-CD19 AB-FITC; LG68/HS74
In assay [1], B3 had a half-maximal effective concentration (EC50) of 0.0034 nM. Against the preceding molecule, the EC50 is about 2.8-fold lower.

B4: anti-CD19 (FMC63) Fab C-FITC (light chain T109) (Fab, V domains shown)
VH: B1 VH
VL: B1 VL
modifications: position 109 of the whole light chain = pAzF conjugated with BCN-PEG4-FITC
notes: Monovalent, medial site; also called LT109
B4: it took 0.0064 nM to reach a half-maximal effect in assay [1] (EC50).

B5: anti-CD19 (FMC63) Fab D-FITC (heavy chain A121) (Fab, V domains shown)
VH: B1 VH
VL: B1 VL
modifications: position 121 of the whole heavy chain = pAzF conjugated with BCN-PEG4-FITC
notes: Monovalent, medial site; also called HA121
B5 registered a concentration for a half-maximal effect (EC50) in assay [1] of 0.0095 nM. This EC50 and that of the molecule before are within 1.5-fold of each other.

B6: anti-CD19 (FMC63) Fab B-FITC (heavy chain S74) (Fab, V domains shown)
VH: B1 VH
VL: B1 VL
modifications: position 74 = pAzF conjugated with BCN-PEG4-FITC
notes: Monovalent, proximal site; also called HS74
With B6, the EC50 in assay [1] is 0.0091 nM.

B7: anti-CD19 (FMC63) Fab E-FITC (light chain S202) (Fab, V domains shown)
VH: B1 VH
VL: B1 VL
modifications: position 202 of the whole light chain = pAzF conjugated with BCN-PEG4-FITC
notes: Monovalent, distal site; also called LS202
B7 displayed a concentration giving a half-maximal response (EC50) in assay [1] of 0.007 nM.

B8: anti-CD19 (FMC63) Fab EF-FITC (light chain S202 and heavy chain K136) (Fab, V domains shown)
VH: B1 VH
VL: B1 VL
modifications: position 136 of the whole heavy chain = pAzF conjugated with BCN-PEG4-FITC; position 202 of the whole light chain = pAzF conjugated with BCN-PEG4-FITC
notes: Bivalent, distal sites; also called LS202/HK136
B8: the values for the EC50 in assay [1] and in assay [2] were 0.0029 nM and roughly 3 nM, respectively.

B9: anti-CD19 (FMC63) Fab F-FITC (heavy chain K136) (Fab, V domains shown)
VH: B1 VH
VL: B1 VL
modifications: position 136 of the whole heavy chain = pAzF conjugated with BCN-PEG4-FITC
notes: Monovalent, distal site; also called HK136
In turn, B9 showed a half-maximal effective concentration (EC50) in assay [1] of 0.0092 nM.

B10: anti-CD33 Fab (clone hM195) (Fab, V domains shown)
VH: QVQLVQSGAEVKKPGSSVKVSCKASGYTFTDYNMHWVRQAPGQGLEWIGYIYPYNGGTGYNQKFKSKATITADESTNTAYMELSSLRSEDTAVYYCARGRPAMDYWGQGTLVTVSS
VL: DIQMTQSPSSLSASVGDRVTITCRASESVDNYGISFMNWFQQKPGKAPKLLIYAASNQGSGVPSRFSGSGSGTDFTLNISSLQPDDFATYYCQQSKEVPWTFGQGTKVEIKR
As to B10, in the assay with CD33 on MOLM14 cells [3], it took 1800 nM to reach a half-maximal effect (EC50). That is a single-digit micromolar value.

B11: anti-CD33 hP67.6 AB-FITC switch (light chain G72 and heavy chain P75) (Fab, V domains shown)
VH: EVQLVQSGAEVKKPGSSVKVSCKASGYTITDSNIHWVRQAPGQSLEWIGYIYPYNGGTDYNQKFKNRATLTVDNXTNTAYMELSSLRSEDTAFYYCVNGNPWLAYWGQGTLVTVSS
VL: DIQLTQSPSTLSASVGDRVTITCRASESLDNYGIRFLTWFQQKPGKAPKLLMYAASNQGSGVPSRFSGSGSXTEFTLTISSLQPDDFATYYCQQTKEVPWSFGQGTKVEVKR
modifications: position 75 = pAzF conjugated with a cyclooctyne-PEG-FITC linker; position 72 = pAzF conjugated with a cyclooctyne-PEG-FITC linker
For B11, in the assay with CD33 on MOLM14 cells [4], the “EC50 of cytotoxicity of anti-FITC CAR-T cells against MOLM14 cells” value was 0.0065 nM and the “efficacy in MOLM14 against the optimized anti-CD33 hM195 CD-FITC switch” value is roughly 3 fold.

B12: anti-CD33 Fab (clone hP67.6) (Fab, V domains shown)
VH: B11 VH with X75P
VL: B11 VL with X72G
Regarding B12, the concentration for a half-maximal effect (EC50) with CD33 on MOLM14 cells [3] came out at 3.96 nM.
